PMC6408259

Biological target: T1, DJ-1 (human (endogenous in M17D neuroblastoma cells)), Q99497
T1 chain: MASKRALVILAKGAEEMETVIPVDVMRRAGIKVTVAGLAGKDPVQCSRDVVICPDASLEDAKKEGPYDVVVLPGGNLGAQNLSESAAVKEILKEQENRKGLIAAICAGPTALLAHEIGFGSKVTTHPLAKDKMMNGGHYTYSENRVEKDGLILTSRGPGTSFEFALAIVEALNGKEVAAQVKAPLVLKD
Test: cross-linking
Conditions: remark: other sources report otherwise

B1: DJ-1, Q99497 1-189 (natural protein)
chain: T1 chain
stoichiometry N: 2
